How the values were obtained:
Assay in all cases: holdup assay
Design in all cases: key: below the threshold = too weak to quantify, mostly under pKd 3.1 to 4
[1] = target: T1, APBA1_2, Q02410
T1 sequence (Q02410 742-832, limits assumed, looked up): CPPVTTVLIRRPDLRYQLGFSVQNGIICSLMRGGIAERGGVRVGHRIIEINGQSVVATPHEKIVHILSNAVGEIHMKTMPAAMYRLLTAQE

[2] = target: CASK, O14936
[3] = target: DLG1_1, Q12959
[4] = target: DLG4_3, P78352
[5] = target: FRMPD2_1, Q68DX3
[6] = target: FRMPD2_2, Q68DX3
[7] = target: FRMPD2_3, Q68DX3
FRMPD2_3, Q68DX3, sequence (Q68DX3 1073-1166): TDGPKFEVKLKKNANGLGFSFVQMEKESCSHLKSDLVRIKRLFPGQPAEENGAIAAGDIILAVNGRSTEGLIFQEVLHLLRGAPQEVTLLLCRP

[8] = target: GIPC2, Q8TF65
GIPC2, Q8TF65, sequence (Q8TF65 112-203): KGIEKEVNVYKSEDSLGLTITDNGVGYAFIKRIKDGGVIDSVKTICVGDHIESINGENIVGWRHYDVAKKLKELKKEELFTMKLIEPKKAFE

[9] = target: GORASP1, Q9BQQ3
GORASP1, Q9BQQ3, sequence (Q9BQQ3 1-208): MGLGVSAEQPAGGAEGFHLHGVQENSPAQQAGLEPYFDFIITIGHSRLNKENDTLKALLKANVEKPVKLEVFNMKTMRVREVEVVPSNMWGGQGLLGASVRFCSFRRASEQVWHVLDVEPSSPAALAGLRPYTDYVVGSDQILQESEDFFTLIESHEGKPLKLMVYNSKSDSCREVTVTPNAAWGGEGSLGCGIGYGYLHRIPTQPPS

[10] = target: T2, GRIP1_3, Q9Y3R0
T2 sequence (Q9Y3R0 247-346, limits assumed, looked up): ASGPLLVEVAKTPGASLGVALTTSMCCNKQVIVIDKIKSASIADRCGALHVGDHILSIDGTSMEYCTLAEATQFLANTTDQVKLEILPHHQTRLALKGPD

[11] = target: T3, GRIP1_4, Q9Y3R0
T3 sequence (Q9Y3R0 467-571, limits assumed, looked up): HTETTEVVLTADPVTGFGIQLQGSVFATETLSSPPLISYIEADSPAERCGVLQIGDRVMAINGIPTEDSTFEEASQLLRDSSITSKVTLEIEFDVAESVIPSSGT

[12] = target: GRIP2_6, Q9C0E4
GRIP2_6, Q9C0E4, sequence (Q9C0E4 648-740): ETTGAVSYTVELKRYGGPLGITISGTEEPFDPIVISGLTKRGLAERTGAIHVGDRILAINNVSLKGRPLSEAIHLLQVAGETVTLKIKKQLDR

[13] = target: GRIP2_7, Q9C0E4
GRIP2_7, Q9C0E4, sequence (Q9C0E4 934-1023): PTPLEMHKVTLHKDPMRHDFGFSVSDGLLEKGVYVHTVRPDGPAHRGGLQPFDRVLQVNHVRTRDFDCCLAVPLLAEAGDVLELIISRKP

[14] = target: Inadl_2, Q8NI35
Inadl_2, Q8NI35, sequence (Q8NI35 238-335): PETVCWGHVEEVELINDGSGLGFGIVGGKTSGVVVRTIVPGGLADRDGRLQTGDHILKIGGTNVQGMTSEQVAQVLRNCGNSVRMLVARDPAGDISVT

[15] = target: LAP2, Q96RT1
LAP2, Q96RT1, sequence (Q96RT1 other isoform, or with tags, fused parts or gaps): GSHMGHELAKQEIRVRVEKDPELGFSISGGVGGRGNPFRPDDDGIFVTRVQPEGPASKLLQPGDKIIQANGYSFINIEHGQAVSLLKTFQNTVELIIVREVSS

[16] = target: T4, LIN7B, Q9HAP6
T4 sequence (Q9HAP6 88-185, limits assumed, looked up): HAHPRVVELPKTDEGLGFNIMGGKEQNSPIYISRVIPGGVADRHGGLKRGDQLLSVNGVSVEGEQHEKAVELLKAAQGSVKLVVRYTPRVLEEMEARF

[17] = target: LNX1_1, Q8TBB1
LNX1_1, Q8TBB1, sequence (Q8TBB1 261-371): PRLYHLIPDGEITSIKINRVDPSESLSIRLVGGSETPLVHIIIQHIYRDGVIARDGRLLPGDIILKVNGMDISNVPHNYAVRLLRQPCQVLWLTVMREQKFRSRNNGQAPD

[18] = target: LNX1_3, Q8TBB1
LNX1_3, Q8TBB1, sequence (Q8TBB1 500-596): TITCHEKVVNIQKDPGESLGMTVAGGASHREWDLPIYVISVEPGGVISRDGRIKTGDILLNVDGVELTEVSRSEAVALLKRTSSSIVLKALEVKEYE

[19] = target: MAGI1_2, Q96QZ7
MAGI1_2, Q96QZ7, sequence (Q96QZ7 456-580): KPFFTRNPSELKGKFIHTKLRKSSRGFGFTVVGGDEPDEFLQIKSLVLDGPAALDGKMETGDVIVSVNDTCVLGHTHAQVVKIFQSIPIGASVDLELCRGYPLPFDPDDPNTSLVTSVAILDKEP

[20] = target: MAGI2_4, Q86UL8
MAGI2_4, Q86UL8, sequence (Q86UL8 772-865): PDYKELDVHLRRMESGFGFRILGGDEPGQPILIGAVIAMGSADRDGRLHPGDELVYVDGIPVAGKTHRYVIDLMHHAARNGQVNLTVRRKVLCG

[21] = target: T5, MPP6, Q9NZW5
T5 sequence (Q9NZW5 125-219, limits assumed, looked up): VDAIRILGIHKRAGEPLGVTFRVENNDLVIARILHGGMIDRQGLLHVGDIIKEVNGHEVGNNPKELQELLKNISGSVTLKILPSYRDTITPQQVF

[22] = target: T6, MPP7, Q5T2T1
T6 sequence (Q5T2T1 134-230, limits assumed, looked up): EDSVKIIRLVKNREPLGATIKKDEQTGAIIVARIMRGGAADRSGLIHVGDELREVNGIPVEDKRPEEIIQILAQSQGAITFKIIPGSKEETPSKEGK

[23] = target: T7, NHERF3_4, Q5T2W1
T7 sequence (Q5T2W1 373-468, limits assumed, looked up): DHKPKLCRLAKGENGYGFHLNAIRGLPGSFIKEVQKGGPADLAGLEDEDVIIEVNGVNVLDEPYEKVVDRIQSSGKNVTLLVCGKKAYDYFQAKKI

[24] = target: T8, PCLO, Q9Y6V0
T8 sequence (Q9Y6V0 4491-4600, limits assumed, looked up): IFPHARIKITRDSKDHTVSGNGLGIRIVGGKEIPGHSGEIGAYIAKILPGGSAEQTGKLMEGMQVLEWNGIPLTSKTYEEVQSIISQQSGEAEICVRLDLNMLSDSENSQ

[25] = target: T9, PDZD2_2, O15018
T9 sequence (O15018 329-429, limits assumed, looked up): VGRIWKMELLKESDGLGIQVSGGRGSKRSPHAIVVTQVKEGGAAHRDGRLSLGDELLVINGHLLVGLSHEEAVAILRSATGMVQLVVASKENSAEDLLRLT

[26] = target: T10, PDZD7_3, Q9H5P4
T10 sequence (Q9H5P4 857-944, limits assumed, looked up): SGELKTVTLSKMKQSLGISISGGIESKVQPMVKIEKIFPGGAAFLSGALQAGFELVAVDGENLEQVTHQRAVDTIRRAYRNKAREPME

[27] = target: T11, RADIL, Q96JH8
T11 sequence (Q96JH8 971-1071, limits assumed, looked up): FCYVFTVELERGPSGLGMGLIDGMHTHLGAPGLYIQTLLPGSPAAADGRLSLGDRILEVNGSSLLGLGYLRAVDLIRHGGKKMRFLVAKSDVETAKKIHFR

[28] = plain residues with an end cap or a label only (N-terminal biotin on a linker: ttds)
[29] = plain residues with an end cap or a label only (N-terminal biotin on a linker: ado-ado)

FRMPD2_2, Q68DX3, sequence (Q68DX3 944-1038): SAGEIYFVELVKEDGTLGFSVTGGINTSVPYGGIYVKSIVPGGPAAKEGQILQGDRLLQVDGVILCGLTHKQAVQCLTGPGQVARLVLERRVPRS
FRMPD2_1, Q68DX3, sequence (Q68DX3 770-861): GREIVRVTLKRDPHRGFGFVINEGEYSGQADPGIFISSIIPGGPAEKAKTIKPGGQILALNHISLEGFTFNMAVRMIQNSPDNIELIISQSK
CASK, O14936, sequence (O14936 487-570): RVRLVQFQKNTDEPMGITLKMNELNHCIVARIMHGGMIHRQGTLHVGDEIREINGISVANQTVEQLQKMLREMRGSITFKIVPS
DLG4_3, P78352, sequence (P78352 306-403): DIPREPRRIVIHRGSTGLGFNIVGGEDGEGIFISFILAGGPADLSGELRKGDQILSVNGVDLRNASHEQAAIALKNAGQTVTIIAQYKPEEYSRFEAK

B1: ABRAXAS2, Q15018 (peptide)
chain: DPRNTQTSQI
pKd [1, 28]: 3.71 | pKd [2, 28]: 3.55 | pKd [3, 28]: 3.49 | pKd [4, 28]: below the threshold | pKd [5, 28]: below the threshold | pKd [6, 28]: below the threshold | pKd [7, 28]: 3.54 | pKd [8, 28]: 3.54 | pKd [9, 28]: 3.56 | pKd [10, 28]: below the threshold | pKd [11, 28]: below the threshold | pKd [12, 28]: below the threshold | pKd [13, 28]: 3.55 | pKd [14, 28]: below the threshold | pKd [15, 28]: 3.53 | pKd [16, 28]: below the threshold | pKd [17, 28]: below the threshold | pKd [18, 28]: below the threshold | pKd [19, 28]: 3.52 | pKd [20, 28]: below the threshold | pKd [21, 28]: below the threshold | pKd [22, 28]: below the threshold | pKd [23, 28]: below the threshold | pKd [24, 28]: 3.66 | pKd [25, 28]: 4.44 | pKd [26, 28]: 4.31 | pKd [27, 28]: below the threshold

B2: SLC23A1, Q9UHI7 (peptide)
chain: TETASVCTKV
pKd [1, 29]: 4.64 | pKd [2, 29]: below the threshold | pKd [3, 29]: 3.84 | pKd [4, 29]: below the threshold | pKd [5, 29]: 3.76 | pKd [6, 29]: 3.93 | pKd [7, 29]: below the threshold | pKd [8, 29]: 3.6 | pKd [9, 29]: 3.87 | pKd [10, 29]: below the threshold | pKd [11, 29]: below the threshold | pKd [12, 29]: below the threshold | pKd [13, 29]: below the threshold | pKd [14, 29]: below the threshold | pKd [15, 29]: 3.74 | pKd [16, 29]: below the threshold | pKd [17, 29]: 3.73 | pKd [18, 29]: 3.5 | pKd [19, 29]: below the threshold | pKd [20, 29]: 3.58 | pKd [21, 29]: 3.87 | pKd [22, 29]: below the threshold | pKd [23, 29]: 3.7 | pKd [24, 29]: below the threshold | pKd [25, 29]: 4.12 | pKd [26, 29]: 4.63 | pKd [27, 29]: 3.96

B3: AGMAT, Q9BSE5 (peptide)
chain: LCALPKVTTV
pKd [1, 28]: 3.86 | pKd [2, 28]: below the threshold | pKd [3, 28]: 4.97 | pKd [4, 28]: 4.23 | pKd [5, 28]: below the threshold | pKd [6, 28]: 3.72 | pKd [7, 28]: below the threshold | pKd [8, 28]: below the threshold | pKd [9, 28]: 4.11 | pKd [10, 28]: below the threshold | pKd [11, 28]: below the threshold | pKd [12, 28]: below the threshold | pKd [13, 28]: below the threshold | pKd [14, 28]: below the threshold | pKd [15, 28]: 3.61 | pKd [16, 28]: 3.94 | pKd [17, 28]: 3.98 | pKd [18, 28]: 3.61 | pKd [19, 28]: 4.1 | pKd [20, 28]: 4.55 | pKd [21, 28]: 3.54 | pKd [22, 28]: below the threshold | pKd [23, 28]: 3.51 | pKd [24, 28]: below the threshold | pKd [25, 28]: 4.44 | pKd [26, 28]: 5.41 | pKd [27, 28]: 4.59

B4: PRKCA, P17252 (peptide)
chain: FVHPILQSAV
pKd [1, 29]: 3.69 | pKd [2, 29]: below the threshold | pKd [3, 29]: 3.81 | pKd [4, 29]: 3.88 | pKd [5, 29]: below the threshold | pKd [6, 29]: 3.73 | pKd [7, 29]: below the threshold | pKd [8, 29]: below the threshold | pKd [9, 29]: below the threshold | pKd [10, 29]: below the threshold | pKd [11, 29]: below the threshold | pKd [12, 29]: below the threshold | pKd [13, 29]: below the threshold | pKd [14, 29]: below the threshold | pKd [15, 29]: 4.13 | pKd [16, 29]: below the threshold | pKd [17, 29]: 4.02 | pKd [18, 29]: below the threshold | pKd [19, 29]: 3.73 | pKd [20, 29]: below the threshold | pKd [21, 29]: below the threshold | pKd [22, 29]: below the threshold | pKd [23, 29]: below the threshold | pKd [24, 29]: below the threshold | pKd [25, 29]: 5.1 | pKd [26, 29]: 4.55 | pKd [27, 29]: 3.57

B5: TAGAP, Q8N103 (peptide)
chain: QFQYAKESYI
pKd [1, 28]: 3.8 | pKd [2, 28]: below the threshold | pKd [3, 28]: 4.16 | pKd [4, 28]: 3.55 | pKd [5, 28]: below the threshold | pKd [6, 28]: 4.33 | pKd [7, 28]: below the threshold | pKd [8, 28]: 3.78 | pKd [9, 28]: 3.9 | pKd [10, 28]: below the threshold | pKd [11, 28]: below the threshold | pKd [12, 28]: below the threshold | pKd [13, 28]: below the threshold | pKd [14, 28]: below the threshold | pKd [15, 28]: 3.48 | pKd [16, 28]: below the threshold | pKd [17, 28]: 3.66 | pKd [18, 28]: below the threshold | pKd [19, 28]: below the threshold | pKd [20, 28]: below the threshold | pKd [21, 28]: below the threshold | pKd [22, 28]: below the threshold | pKd [23, 28]: below the threshold | pKd [24, 28]: below the threshold | pKd [25, 28]: 5.04 | pKd [26, 28]: 4.87 | pKd [27, 28]: 3.69

B6: HPV31-E6, P17386 (peptide)
chain: SRRPRTETQV
pKd [1, 28]: below the threshold | pKd [2, 28]: below the threshold | pKd [3, 28]: 5.16 | pKd [4, 28]: 5.1 | pKd [5, 28]: below the threshold | pKd [6, 28]: below the threshold | pKd [7, 28]: below the threshold | pKd [8, 28]: below the threshold | pKd [9, 28]: below the threshold | pKd [10, 28]: below the threshold | pKd [11, 28]: below the threshold | pKd [12, 28]: below the threshold | pKd [13, 28]: below the threshold | pKd [14, 28]: below the threshold | pKd [15, 28]: 3.9 | pKd [16, 28]: 3.68 | pKd [17, 28]: below the threshold | pKd [18, 28]: below the threshold | pKd [19, 28]: 5.54 | pKd [20, 28]: 4.48 | pKd [21, 28]: below the threshold | pKd [22, 28]: below the threshold | pKd [23, 28]: below the threshold | pKd [24, 28]: below the threshold | pKd [25, 28]: 3.7 | pKd [26, 28]: 3.71 | pKd [27, 28]: below the threshold

From publication PMC9482650, “Quantitative fragmentomics allow affinity mapping of interactomes” (Nature Communications, 2022)
